In paper PMC13031558, “An intrinsically disordered region mediates RNA-binding selectivity and cellular activities of LARP6”:

Legend:
LARP6 NTD [1] = biological target: T1, LARP6 NTD (Homo sapiens, UniProt Q9BRS8 2-300); test: BLI; 0.5 mM Mg2+; BLI: 20 mM Tris-HCl pH 7.5, 100 mM KCl, 0.5 mM MgCl2, 1 mM TCEP, 0.05% Tween-20, 25 °C; MST, NMR and SAXS buffers not in the material; settings: protein: recombinant; tags: 6xHis-SUMO-TEV tag, cleaved; label: 5' biotin; single strand
T1 sequence: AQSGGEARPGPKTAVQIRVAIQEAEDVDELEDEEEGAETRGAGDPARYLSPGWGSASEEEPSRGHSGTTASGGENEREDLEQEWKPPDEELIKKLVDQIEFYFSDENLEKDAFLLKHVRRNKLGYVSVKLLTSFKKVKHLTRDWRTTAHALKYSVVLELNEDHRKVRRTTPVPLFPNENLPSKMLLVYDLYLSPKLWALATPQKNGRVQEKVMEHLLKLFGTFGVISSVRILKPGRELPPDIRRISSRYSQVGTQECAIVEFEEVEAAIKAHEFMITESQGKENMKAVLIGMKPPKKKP

LARP6 La-module [2] = biological target: T2, LARP6 La-module (Homo sapiens, UniProt Q9BRS8 70-300); test: BLI; Mg; 20 mM Tris-HCl pH 7.5, 100 mM KCl, 0.5 mM MgCl2, 1 mM TCEP, 0.05% Tween-20, 25 C; steady state, 1:1 fit; settings: label: 5' biotin
T2 sequence: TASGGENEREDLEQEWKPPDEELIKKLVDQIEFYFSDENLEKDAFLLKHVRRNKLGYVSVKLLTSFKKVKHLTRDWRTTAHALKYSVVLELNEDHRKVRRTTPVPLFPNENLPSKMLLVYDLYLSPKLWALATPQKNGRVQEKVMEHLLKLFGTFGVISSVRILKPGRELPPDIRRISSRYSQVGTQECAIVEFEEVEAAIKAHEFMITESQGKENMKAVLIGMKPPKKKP

LARP6 NTD [3] = biological target: T1, LARP6 NTD; test: as above; settings: label: 5' biotin
LARP6 La-module [4] = biological target: T2, LARP6 La-module; test: MST; BLI: 20 mM Tris-HCl pH 7.5, 100 mM KCl, 0.5 mM MgCl2, 1 mM TCEP, 0.05% Tween-20, 25 °C; MST, NMR and SAXS buffers not in the material; settings: protein: recombinant; tags: His tag cleaved by TEV; label: 5' 6-FAM; single strand
LARP6 NTR [5] = biological target: T3, LARP6 NTR (Homo sapiens, UniProt Q9BRS8 2-83); test: as above; settings: protein: recombinant; tags: 6xHis-SUMO-TEV tag, cleaved; label: 5' 6-FAM; single strand
T3 sequence: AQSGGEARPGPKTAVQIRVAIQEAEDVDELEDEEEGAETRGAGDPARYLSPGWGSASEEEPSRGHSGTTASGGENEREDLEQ

LARP6 NTD [6] = biological target: T1, LARP6 NTD; test: as above; settings: protein: recombinant; tags: 6xHis-SUMO-TEV tag, cleaved; label: 5' 6-FAM; single strand
LARP6 La-module [7] = biological target: T2, LARP6 La-module; test: BLI; 0.5 mM Mg2+; BLI: 20 mM Tris-HCl pH 7.5, 100 mM KCl, 0.5 mM MgCl2, 1 mM TCEP, 0.05% Tween-20, 25 °C; MST, NMR and SAXS buffers not in the material; settings: protein: recombinant; tags: His tag cleaved by TEV; label: 5' biotin; single strand
LARP6 NTR [8] = biological target: T3, LARP6 NTR; test: as above; settings: protein: recombinant; tags: 6xHis-SUMO-TEV tag, cleaved; label: 5' biotin; single strand

AGGUGGUGAAUUUUCCAAGAACAUA (ssRNA) [CTNNA1 D1]
Kd (LARP6 NTD [1]): 85 ± 4 nM | Kd (LARP6 La-module [2]): 2 ± 0.1 nM | Kd (LARP6 NTD [3]): 87 ± 4 nM

GUUUAAGUUGAUUAAAAAUGCUUUU (ssRNA) [CTNNA1 D2]
Kd (LARP6 NTD [1]): 367 ± 57 nM | Kd (LARP6 La-module [2]): 6.9 ± 0.6 nM | Kd (LARP6 NTD [3]): 360 ± 57 nM

CUAAAUACAACACUGAUACUAGAUU (ssRNA) [CTNNA1 P1 (5' 6-FAM)]
Kd (LARP6 La-module [4]): 5.8 nM | Kd (LARP6 NTR [5]): 8300 nM | Kd (LARP6 NTD [6]): 99 nM

CCCUCGGGGCUCCUGAAUAUCAGUC (ssRNA) [CTNNA1 U2]
Kd (LARP6 La-module [7]): 4.4 ± 0.1 nM | Kd (LARP6 NTD [1]): 183 ± 5 nM | Kd (LARP6 La-module [2]): 4.3 ± 0.1 nM | Kd (LARP6 NTD [3]): 180 ± 5 nM

CUAAAUACAACACUGAUACUAGAUU (ssRNA) [CTNNA1 P1 (5' biotin)]
Kd (LARP6 La-module [7]): 1.5 ± 0.4 nM | Kd (LARP6 NTR [8]): 1200 ± 500 nM | Kd (LARP6 NTD [1]): 61 ± 5 nM

GGAAAUGGGCAGACUGAACCAGUCC (ssRNA) [CTNNA1 P2]
Kd (LARP6 La-module [7]): 0.91 ± 0.05 nM | Kd (LARP6 La-module [2]): 0.9 ± 0.05 nM | Kd (LARP6 NTD [3]): 17 ± 1.2 nM

ACUGUUCGUCACUCAAAUGAAUUUG (ssRNA) [CTNNA1 U1]
Kd (LARP6 NTD [1]): 587 ± 29 nM | Kd (LARP6 La-module [2]): 14 ± 0.8 nM

CUAAAUACAACACUGAUACUAGAUU (ssRNA) [CTNNA1 P1]
Kd (LARP6 La-module [2]): 1.3 ± 0.4 nM | Kd (LARP6 NTD [3]): 58 ± 5 nM
